“And” between values parts separate entries of the source, which are not always exact repeats. Equal values may be shown once. Each block holds one binder with its values, some of them ahead of it.
How the values were obtained:
[1] = target: T1, HGF (UniProt P14210 32-728); experiment: SPR (Biacore); C-terminal VD
[2] = target: T2, recombinant human HGF (human, UniProt P14210 32-728); experiment: competition ELISA: DVD-Ig co-incubated with 2 nM soluble c-Met Fc on coated HGF (competitor c-Met Fc)
T2 construct: The target there is entered as this HGF; also called hepatocyte growth factor
T2 sequence (P14210 32-728 limits assumed): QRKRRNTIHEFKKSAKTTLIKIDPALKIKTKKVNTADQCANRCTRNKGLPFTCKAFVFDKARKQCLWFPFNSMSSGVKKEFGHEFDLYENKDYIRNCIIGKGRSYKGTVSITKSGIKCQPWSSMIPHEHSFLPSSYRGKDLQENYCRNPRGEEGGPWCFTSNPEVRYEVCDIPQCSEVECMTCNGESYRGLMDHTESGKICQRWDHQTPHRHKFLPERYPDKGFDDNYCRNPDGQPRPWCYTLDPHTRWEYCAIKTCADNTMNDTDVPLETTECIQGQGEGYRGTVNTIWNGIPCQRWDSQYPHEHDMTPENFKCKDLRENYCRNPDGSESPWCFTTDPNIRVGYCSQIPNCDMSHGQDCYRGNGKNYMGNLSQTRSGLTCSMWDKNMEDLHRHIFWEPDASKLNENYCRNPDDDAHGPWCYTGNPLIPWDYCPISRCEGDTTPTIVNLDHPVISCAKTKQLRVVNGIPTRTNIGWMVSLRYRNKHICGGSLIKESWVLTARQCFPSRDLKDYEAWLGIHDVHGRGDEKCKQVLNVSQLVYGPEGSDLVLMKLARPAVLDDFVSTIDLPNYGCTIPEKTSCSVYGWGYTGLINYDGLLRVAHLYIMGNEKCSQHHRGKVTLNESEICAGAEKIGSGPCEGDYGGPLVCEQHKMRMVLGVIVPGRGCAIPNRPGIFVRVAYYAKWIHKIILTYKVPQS

[3] = target: T3, ErbB3 on A431 cells (human, UniProt P21860 20-1342); experiment: cell-based or functional assay
[4] = target: T3, ErbB3 on A431 cells; experiment: cell-based or functional assay; remark: listed apart in the source
[5] = target: NRP1 (Neuropilin-1 Npn-1-His tag) (UniProt O14786-2 22-644); experiment: SPR (Biacore); parent antibody
[6] = target: T4, DLL4 (DLL4 ECD/His tag, R&D Systems 1506-D4-050) (UniProt Q9NR61 27-529); experiment: Direct bind ELISA on DLL4; DLL4 domain C-term., HC short, LC long
T4 construct: extracellular domain; not shown: His tag

[7] = target: T5, IGF-2 (UniProt P01344 25-91); experiment: Biacore SPR
T5 construct: Bought reagent

[8] = target: T6, IGF-I (UniProt P05019 49-118); experiment: Biacore SPR
T6 construct: Bought reagent; also called IGF1

[9] = target: T7, PlGF (Placental GF) (UniProt P49763-2 21-149, limits assumed); experiment: SPR (Biacore); parent antibody
T7 sequence (looked up): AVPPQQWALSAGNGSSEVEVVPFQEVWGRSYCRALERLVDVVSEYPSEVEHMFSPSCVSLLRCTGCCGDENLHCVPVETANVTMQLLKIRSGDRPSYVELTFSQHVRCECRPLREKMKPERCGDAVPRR

[10] = target: T8, IGF1R ECD (UniProt P08069 31-935, limits assumed); experiment: Biacore SPR
T8 construct: extracellular domain; Bought reagent

[11] = target: T1, HGF; experiment: SPR (Biacore); parent antibody

T1 sequence (P14210 32-728 limits assumed): as the sequence (P14210 32-728 limits assumed) above

B4: AB016 (antibody, human IgG1, kappa, V domains shown)
VH: EVQLVESGGGLVQPGGSLRLSCAASGFSFSSEPISWVRQAPGKGLEWVSSITGKNGYTYYADSVKGRFTISADTSKNTAYLQMNSLRAEDTAVYYCARWGKKVYGMDVWGQGTLVTVSS
VL: DIQMTQSPSSLSASVGDRVTITCRASQSISSYLAWYQQKPGKAPKLLIYGASSRASGVPSRFSGSGSGTDFTLTISSLQPEDFATYYCQQYMSVPITFGQGTKVEIKR
notes: also called AB016VH; AB016VL
- Kd [5]: 2.67 nM
- koff [5]: 0.00039 s⁻¹
- kon [5]: 147000 M⁻¹ s⁻¹

B5: DVD462 (VEGF/DLL4 DVD-Ig) (bispecific antibody, human IgG1)
VH: EVQLVESGGGLVQPGGSLRLSCAASGFTISDYWIHWVRQAPGKGLEWVAGITPAGGYTYYADSVKGRFTISADTSKNTAYLQMNSLRAEDTAVYYCARFVFFLPYAMDYWGQGTLVTVSSASTKGPQVQLVQSGAEVKKPGASVKISCKASGYSFTAYYIHWVKQAPGQGLEWIGYISSYNGATNYNQKFKGRVTFTTDTSTSTAYMELRSLRSDDTAVYYCARDYDYDVGMDYWGQGTLVTVSS
VL: DIQMTQSPSSLSASVGDRVTITCRASQDVSTAVAWYQQKPGKAPKLLIYSASFLYSGVPSRFSGSGSGTDFTLTISSLQPEDFATYYCQQSYTTPPTFGQGTKVEIKRTVAAPSVFIFPPDIVMTQSPDSLAVSLGERATISCRASESVDNYGISFMKWFQQKPGQPPKLLIYAASNQGSGVPDRFSGSGSGTDFTLTISSLQAEDVAVYYCQQSKEVPWTFGGGTKVEIKR
notes: HC linker short, LC linker long; also called DVD462H; DVD462L
- EC50 [6]: 7.99 nM

B6: AB010 (antibody, human IgG1, lambda, V domains shown)
VH: QVQLVQSGAEVKKPGASVKVSCKASGYTFTSYDINWVRQATGQGLEWMGWMNPNSGNTGYAQKFQGRVTMTRNTSISTAYMELSSLRSEDTAVYYCARDPYYYYYGMDVWGQGTTVTVSS
VL: QSVLTQPPSVSAAPGQKVTISCSGSSSNIENNHVSWYQQLPGTAPKLLIYDNNKRPSGIPDRFSGSKSGTSATLGITGLQTGDEADYYCETWDTSLSAGRVFGGGTKLTVLG
notes: also called anti-IGF1,2 parent antibody
- Kd [7]: 0.000423 nM and < 0.000299 nM
- koff [7]: 2.74e-06 s⁻¹ and < 1e-06 s⁻¹
- kon [7]: 6.47e+06 M⁻¹ s⁻¹ and 3.35e+06 M⁻¹ s⁻¹
- Kd [8]: 0.388 nM
- koff [8]: 0.00123 s⁻¹
- kon [8]: 3.17e+06 M⁻¹ s⁻¹

B7: DVD508 (VEGF/DLL4 DVD-Ig) (bispecific antibody, human IgG1)
VH: EVQLVESGGGLVQPGGSLRLSCAASGFTISDYWIHWVRQAPGKGLEWVAGITPAGGYTYYADSVKGRFTISADTSKNTAYLQMNSLRAEDTAVYYCARFVFFLPYAMDYWGQGTLVTVSSASTKGPEVQLQQSGPELVKPGASVKMSCKASGYTFTSYVINWVKQKPGQGLEWIGLINPYNDGTKYNEKFKVKATLTSDKSSSTAYMELSSLTSEDSAVYYCASYYYGSRYYFDYWGQGTTLTVSS
VL: DIQMTQSPSSLSASVGDRVTITCRASQDVSTAVAWYQQKPGKAPKLLIYSASFLYSGVPSRFSGSGSGTDFTLTISSLQPEDFATYYCQQSYTTPPTFGQGTKVEIKRTVAAPSVFIFPPDIQMTQSSSYLSVSLGGRVTITCKASDHINNWLAWYQQKPGNAPRLLISGATSLETGVPSRFSGSGSGKDYTLSITSLQTEDVATYYCQQYWSIPLTFGAGTKLELKR
notes: HC linker short, LC linker long; also called DVD508H; DVD508L
- EC50 [6]: 0.61 nM

B9: DVD532 (VEGF/DLL4 DVD-Ig) (bispecific antibody, human IgG1)
VH: EVQLVESGGGLVQPGGSLRLSCAASGFTISDYWIHWVRQAPGKGLEWVAGITPAGGYTYYADSVKGRFTISADTSKNTAYLQMNSLRAEDTAVYYCARFVFFLPYAMDYWGQGTLVTVSSASTKGPEVQLQQSGPELEKPGASVKISCKASGYSFTGYNMNWVKQSNGKSLEWIGNIDPYFGGTNYNQKFKGKATLTVDKSSSTAYMQLKSLTSEDSAVYYCARNYDYDGGCFDYWGQGTTLTVSS
VL: DIQMTQSPSSLSASVGDRVTITCRASQDVSTAVAWYQQKPGKAPKLLIYSASFLYSGVPSRFSGSGSGTDFTLTISSLQPEDFATYYCQQSYTTPPTFGQGTKVEIKRTVAAPSVFIFPPQAVVTQESALTTSPGETVTLTCRSSTGAVTTSNYANWVQEKPDHLFTGLIGGTNNRAPGVPARFSGSLIGDKAALTITGAQTEDEAIYFCALWYSNHWVFGGGTKLTVLG
notes: HC linker short, LC linker long; also called DVD532H; DVD532L
- EC50 [6]: 1.43 nM

B10: DVD484 (VEGF/DLL4 DVD-Ig) (bispecific antibody, human IgG1)
VH: EVQLVESGGGLVQPGGSLRLSCAASGFTISDYWIHWVRQAPGKGLEWVAGITPAGGYTYYADSVKGRFTISADTSKNTAYLQMNSLRAEDTAVYYCARFVFFLPYAMDYWGQGTLVTVSSASTKGPEVQLVESGGGLVQPGGSLRLSCAASGFTFTDNWISWVRQAPGKGLEWVGYISPNSGFTYYADSVKGRFTISADTSKNTAYLQMNSLRAEDTAVYYCARDNFGGYFDYWGQGTLVTVSS
VL: DIQMTQSPSSLSASVGDRVTITCRASQDVSTAVAWYQQKPGKAPKLLIYSASFLYSGVPSRFSGSGSGTDFTLTISSLQPEDFATYYCQQSYTTPPTFGQGTKVEIKRTVAAPSVFIFPPDIQMTQSPSSLSASVGDRVTITCRASQDVSTAVAWYQQKPGKAPKLLIYSASFLYSGVPSRFSGSGSGTDFTLTISSLQPEDFATTYYCQQSYTGTVTFGQGTKVEIKR
notes: HC linker short, LC linker long; also called DVD484H; DVD484L
- EC50 [6]: 1.75 nM

B11: AB011 (antibody, human IgG1, kappa, V domains shown)
VH: EVQLLESGGGLVQPGGSLRLSCTASGFTFSSYAMNWVRQAPGKGLEWVSAISGSGGTTFYADSVKGRFTISRDNSRTTLYLQMNSLRAEDTAVYYCAKDLGWSDSYYYYYGMDVWGQGTTVTVSS
VL: DIQMTQFPSSLSASVGDRVTITCRASQGIRNDLGWYQQKPGKAPKRLIYAASRLHRGVPSRFSGSGSGTEFTLTISSLQPEDFATYYCLQHNSYPCSFGQGTKLEIKR
- Kd [10]: 0.848 nM
- koff [10]: 6.21e-05 s⁻¹
- kon [10]: 73200 M⁻¹ s⁻¹

B13: AB012 (antibody, human IgG1, kappa, V domains shown)
VH: QVQLVESGGGLVKPGGSLRLSCAASGFTFSDYYMSWIRQAPGKGLEWVSYISSSGSTIYYADSVKGRFTISRDNAKNSLYLQMNSLRAEDTAVYYCARDEYNSGWYVLFDYWGQGTLVTVSS
VL: DIQMTQSPSSVSASVGDRVTITCRASQGISSWLAWYQQKPGKAPNLLIYEASSLQSGVPSRFGGSGSGTDFTLTISSLQPEDFATYYCQQANGFPWTFGQGTKVEIKR
notes: also called AB012VH; AB012VL
- Kd [11]: < 0.0284 nM
- koff [11]: 0.000284 s⁻¹
- kon [11]: > 1e+07 M⁻¹ s⁻¹

Results, then the binder that gave them:

- Kd [1]: 0.901 nM
- koff [1]: 0.000166 s⁻¹
- kon [1]: 184000 M⁻¹ s⁻¹
B1: DVD045 (bispecific antibody, human IgG1, kappa)
heavy: not shown
light: DIQMTQSPSSLSASVGDRVTITCSASQDISNYLNWYQQKPGKAPKVLIYFTSSLHSGVPSRFSGSGSGTDFTLTISSLQPEDFATYYCQQYSTVPWTFGQGTKVEIKRTVAAPDIQMTQSPSSVSASVGDRVTITCRASQGISSWLAWYQQKPGKAPNLLIYEASSLQSGVPSRFGGSGSGTDFTLTISSLQPEDFATYYCQQANGFPWTFGQGTKVEIKRTVAAPSVFIFPPSDEQLKSGTASVVCLLNNFYPREAKVQWKVDNALQSGNSQESVTEQDSKDSTYSLSSTLTLSKADYEKHKVYACEVTHQGLSSPVTKSFNRGEC
notes: N-terminal VD VEGF, C-terminal VD HGF; also called DVD045H; DVD045L

- IC50 [2]: > 100 nM
B2: DVD045 (VEGF (seq. 1) N-terminal / HGF (seq. 1) C-terminal DVD-Ig, linker set 1) (bispecific antibody, human IgG1, kappa)
heavy: not shown
light: B1 light
notes: also called DVD045H/DVD045L

- Inhibition Of EGFR Phosphorylation (% Inhibition At 60 nM Ab/DVD) [3]: 0%
- Inhibition Of ErbB3 Phosphorylation (% Inhibition At 60 nM Ab/DVD) [3]: 72%
- Inhibition Of A431 Proliferation (% Inhibition At 2.4 nM Ab/DVD) [4]: 14%
- Inhibition Of A431 Proliferation (% Inhibition At 21.6 nM Ab/DVD) [4]: 27%
B3: AB062 (anti-ErbB3 (seq. 1) parent antibody) (antibody, human IgG1, kappa, V domains shown)
VH: QVQLQQWGAGLLKPSETLSLTCAVYGGSFSGYYWSWIRQPPGKGLEWIGEINHSGSTNYNPSLKSRVTISVETSKNQFSLKLSSVTAADTAVYYCARDKWTWYFDLWGRGTLVTVSS
VL: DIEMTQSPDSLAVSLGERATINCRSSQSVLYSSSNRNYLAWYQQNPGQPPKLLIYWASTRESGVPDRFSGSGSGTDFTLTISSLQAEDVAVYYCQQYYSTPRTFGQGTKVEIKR

- Kd [9]: 0.0285 nM
- koff [9]: 0.000108 s⁻¹
- kon [9]: 3.8e+06 M⁻¹ s⁻¹
B8: AB047 (antibody, human IgG1, kappa, V domains shown)
VH: QVQLQQSGAELVKPGASVKISCKASGYTFTDYYINWVKLAPGQGLEWIGWIYPGSGNTKYNEKFKGKATLTIDTSSSTAYMQLSSLTSEDTAVYFCVRDSPFFDYWGQGTLLTVSS
VL: DIVLTQSPDSLAVSLGERVTMNCKSSQSLLNSGMRKSFLAWYQQKPGQSPKLLIYWASTRESGVPDRFTGSGSGTDFTLTISSVQAEDVAVYYCKQSYHLFTFGSGTKLEIKR
notes: also called AB047VH; AB047VL

- IC50 [2]: 8.7 nM
B12: DVD033 (RON (seq. 1) N-terminal / HGF (seq. 1) C-terminal DVD-Ig) (bispecific antibody, human IgG1, kappa)
heavy: not shown
light: DVVMTQSPLSLPVTPGEPASISCRSSQSLLHSNGFNYVDWYLQKPGQSPHLLIYFGSYRASGVPDRFSGSGSGTDFTLKISRVEAEDVGVYYCMQALQTPPWTFGQGTKVEIRRTVAAPDIQMTQSPSSVSASVGDRVTITCRASQGISSWLAWYQQKPGKAPNLLIYEASSLQSGVPSRFGGSGSGTDFTLTISSLQPEDFATYYCQQANGFPWTFGQGTKVEIKRTVAAPSVFIFPPSDEQLKSGTASVVCLLNNFYPREAKVQWKVDNALQSGNSQESVTEQDSKDSTYSLSSTLTLSKADYEKHKVYACEVTHQGLSSPVTKSFNRGEC
notes: also called DVD033H/DVD033L

Source: US20100260668A1 (published 2010)
